Laboratory results from publication PMC7615972, “Cachd1 interacts with Wnt receptors and regulates neuronal asymmetry in the zebrafish brain” (Science (New York, N.Y.), 2024).

T1: purified mouse CACHD1 extracellular domain (CACHD1ECD) (mouse, UniProt Q6PDJ1 50-1109)
T1 construct: CACHD1, mouse, extracellular domain; Construct limits and tags are in the supplementary methods; also called mouse CACHD1ECD; source: purified recombinant
T1 sequence (looked up): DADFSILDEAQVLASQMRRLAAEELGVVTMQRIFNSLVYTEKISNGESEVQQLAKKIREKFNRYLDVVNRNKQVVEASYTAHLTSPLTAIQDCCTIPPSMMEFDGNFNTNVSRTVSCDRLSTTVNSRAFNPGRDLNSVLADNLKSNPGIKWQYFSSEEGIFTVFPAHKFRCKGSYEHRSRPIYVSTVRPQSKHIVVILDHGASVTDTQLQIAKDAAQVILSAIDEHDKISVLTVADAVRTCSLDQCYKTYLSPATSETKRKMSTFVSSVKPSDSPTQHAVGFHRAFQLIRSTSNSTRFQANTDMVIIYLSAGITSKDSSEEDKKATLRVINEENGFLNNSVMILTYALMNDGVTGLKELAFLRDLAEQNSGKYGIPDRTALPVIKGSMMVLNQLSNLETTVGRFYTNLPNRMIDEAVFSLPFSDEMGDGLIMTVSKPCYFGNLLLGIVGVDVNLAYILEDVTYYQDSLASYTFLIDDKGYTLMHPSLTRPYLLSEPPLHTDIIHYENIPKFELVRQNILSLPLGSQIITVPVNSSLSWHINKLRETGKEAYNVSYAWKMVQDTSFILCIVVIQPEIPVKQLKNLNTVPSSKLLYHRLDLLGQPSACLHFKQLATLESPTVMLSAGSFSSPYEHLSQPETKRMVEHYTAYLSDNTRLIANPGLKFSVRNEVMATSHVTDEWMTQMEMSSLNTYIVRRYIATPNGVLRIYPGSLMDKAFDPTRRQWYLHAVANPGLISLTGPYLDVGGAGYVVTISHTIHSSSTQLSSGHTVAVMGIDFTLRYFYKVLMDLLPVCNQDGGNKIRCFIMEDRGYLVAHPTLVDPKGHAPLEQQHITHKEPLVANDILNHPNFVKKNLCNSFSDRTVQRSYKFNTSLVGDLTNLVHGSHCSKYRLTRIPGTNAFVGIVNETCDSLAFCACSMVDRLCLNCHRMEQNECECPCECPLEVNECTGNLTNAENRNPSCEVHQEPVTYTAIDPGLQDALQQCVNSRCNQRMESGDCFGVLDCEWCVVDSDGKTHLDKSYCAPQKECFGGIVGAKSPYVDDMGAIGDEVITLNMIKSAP

B1: mouse FZD5 cysteine-rich domain (FZD5CRD) (domain or fragment)
chain: ASKAPVCQEITVPMCRGIGYNLTHMPNQFNHDTQDEAGLEVHQFWPLVEIHCSPDLRFFLCSMYTPICLPDYHKPLPPCRSVCERAKAGCSPLMRQYGFAWPERMSCDRLPVLGGDAEVLCMDYNRSEAT
notes: Frizzled-5, mouse, cysteine-rich domain (CRD); source: purified recombinant
B2: human LRP6 membrane proximal fragment (LRP6_(P3E3P4E4)) (domain or fragment)
chain: VPEAFLLFSRRADIRRISLETNNNNVAIPLTGVKEASALDFDVTDNRIYWTDISLKTISRAFMNGSALEHVVEFGLDYPEGMAVDWLGKNLYWADTGTNRIEVSKLDGQHRQVLVWKDLDSPRALALDPAEGFMYWTEWGGKPKIDRAAMDGSERTTLVPNVGRANGLTIDYAKRRLYWTDLDTNLIESSNMLGLNREVIADDLPHPFGLTQYQDYIYWTDWSRRSIERANKTSGQNRTIIQGHLDYVMDILVFHSSRQSGWNECASSNGHCSHLCLAVPVGGFVCGCPAHYSLNADNRTCSAPTTFLLFSQKSAINRMVIDEQQSPDIILPIHSLRNVRAIDYDPLDKQLYWIDSRQNMIRKAQEDGSQGFTVVVSSVPSQNLEIQPYDLSIDIYSRYIYWTCEATNVINVTRLDGRSVGVVLKGEQDRPRAVVVNPEKGYMYFTNLQERSPKIERAALDGTEREVLFFSGLSKPIALALDSRLGKLFWADSDLRRIESSDLSGANRIVLEDSNILQPVGLTVFENWLYWIDKQQQMIEKIDMTGREGRTKVQARIAQLSDIHAVKELNLQEYRQHPCAQDNGGCSHICLVKGDGTTRCSCPMHLVLLQDELSCG
notes: LRP6, human, membrane proximal fragment P3E3P4E4; also called 3-4

Molecular target: T1, purified mouse CACHD1 extracellular …
Assay: SPR; mouse CACHD1ECD as analyte; FZD CRDs or LRP6 fragments immobilised; equilibrium dissociation constants
Details: both partners purified

| Binder | Kd |
| --- | --- |
| B1 | 480 ± 40 nM |
| B2 | 170 ± 10 nM |
